For assay [1], the target named is T1, PKA catalytic subunit (mouse, type α, PKAc) fused to Venus YFP PCA fragment F[2] (mouse, UniProt P05132 1-351). Description: Venus YFP protein-fragment complementation assay in cells.
For assay [2], the target named is T2, PKA regulatory subunit RIIβ (rat, type IIβ) fused to Venus YFP PCA fragment F[2] (rat, UniProt P12369 1-416).
T2 construct: Expressed in COS7 or HEK293 cells from pcDNA3.1; also called RIIβ-F[2]; RegIIβ; not shown: Venus variant of yellow fluorescent protein (YFP), C-terminal fragment F[2], amino acids 159-239
T2 sequence (P12369 other isoform, or with tags, fused parts or gaps): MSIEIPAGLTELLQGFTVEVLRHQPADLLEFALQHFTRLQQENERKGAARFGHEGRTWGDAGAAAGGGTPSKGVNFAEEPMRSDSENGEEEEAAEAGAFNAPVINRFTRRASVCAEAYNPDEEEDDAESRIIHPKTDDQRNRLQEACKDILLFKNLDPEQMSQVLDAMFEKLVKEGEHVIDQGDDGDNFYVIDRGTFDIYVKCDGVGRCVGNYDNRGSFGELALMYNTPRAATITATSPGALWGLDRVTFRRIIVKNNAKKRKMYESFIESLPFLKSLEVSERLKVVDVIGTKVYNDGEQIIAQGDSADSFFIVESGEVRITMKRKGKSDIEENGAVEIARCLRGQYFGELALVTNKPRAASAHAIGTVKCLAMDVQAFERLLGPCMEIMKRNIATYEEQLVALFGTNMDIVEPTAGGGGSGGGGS
Put plainly: Venus YFP protein-fragment complementation assay in COS7 cells.

In assay [3] the target is T1, PKA catalytic subunit (mouse, type α, …). Described as above.

The values that follow come from patent publication US20150005237A1 (UNIVERSIT T INNSBRUCK, published 2015).

B1: Phosphoinositide-dependent kinase 1 (PDK1) fused to Venus YFP PCA fragment F[1] (enzyme, UniProt Q9Z2A0 1-559, looked up)
chain: MARTTSQLYDAVPIQSSVVLCSCPSPSMVRSQTEPGSSPGIPSGVSRQGSTMDGTTAEARPSTNPLQQHPAQLPPQPRKKRPEDFKFGKILGEGSFSTVVLARELATSREYAIKILEKRHIIKENKVPYVTRERDVMSRLDHPFFVKLYFTFQDDEKLYFGLSYAKNGELLKYIRKIGSFDETCTRFYTAEIVSALEYLHGKGIIHRDLKPENILLNEDMHIQITDFGTAKVLSPESKQARANSFVGTAQYVSPELLTEKSACKSSDLWALGCIIYQLVAGLPPFRAGNEYLIFQKIIKLEYHFPEKFFPKARDLVEKLLVLDATKRLGCEEMEGYGPLKAHPFFETITWENLHQQTPPKLTAYLPAMSEDDEDCYGNYDNLLSQFGFMQVSSSSSSHSLSTVETSLPQRSGSNIEQYIHDLDTNSFELDLQFSEDEKRLLLEKQAGGNPWHQFVENNLILKMGPVDKRKGLFARRRQLLLTEGPHLYYVDPVNKVLKGEIPWSQELRPEAKNFKTFFVHTPNRTYYLMDPSGNAHKWCRKIQEVWRQQYQSNPDAAVQ
notes: Prey fused to F[1]; not shown: Venus variant of yellow fluorescent protein (YFP), N-terminal fragment F[1], amino acids 1-158
Regarding B1, the binding result in assay [1] is given as “binds”.

B2: Gαi2 fused to Venus YFP PCA fragment F[1] (other, UniProt P08752 1-355, looked up)
chain: MGCTVSAEDKAAAERSKMIDKNLREDGEKAAREVKLLLLGAGESGKSTIVKQMKIIHEDGYSEEECRQYRAVVYSNTIQSIMAIVKAMGNLQIDFADPQRADDARQLFALSCAAEEQGMLPEDLSGVIRRLWADHGVQACFGRSREYQLNDSAAYYLNDLERIAQSDYIPTQQDVLRTRVKTTGIVETHFTFKDLHFKMFDVGGQRSERKKWIHCFEGVTAIIFCVALSAYDLVLAEDEEMNRMHESMKLFDSICNNKWFTDTSIILFLNKKDLFEEKITQSSLTICFPEYTGANKYDEAASYIQSKFEDLNKRKDTKEIYTHFTCATDTKNVQFVFDAVTDVIIKNNLKDCGLF
notes: Prey fused to F[1]; also called Gαi isoform 2 prey; not shown: Venus variant of yellow fluorescent protein (YFP), N-terminal fragment F[1], amino acids 1-158
Take B2: the binding result is reported as “binds” in assay [2] and “no binding” in assay [3].

B3: Gαi3 fused to Venus YFP PCA fragment F[1] (other, UniProt Q9DC51 1-354, looked up)
chain: MGCTLSAEDKAAVERSKMIDRNLREDGEKAAKEVKLLLLGAGESGKSTIVKQMKIIHEDGYSEDECKQYKVVVYSNTIQSIIAIIRAMGRLKIDFGESARADDARQLFVLAGSAEEGVMTSELAGVIKRLWRDGGVQACFSRSREYQLNDSASYYLNDLDRISQTNYIPTQQDVLRTRVKTTGIVETHFTFKELYFKMFDVGGQRSERKKWIHCFEGVTAIIFCVALSDYDLVLAEDEEMNRMHESMKLFDSICNNKWFTDTSIILFLNKKDLFEEKIKRSPLTICYPEYTGSNTYEEAAAYIQCQFEDLNRRKDTKEVYTHFTCATDTKNVQFVFDAVTDVIIKNNLKECGLY
notes: Prey fused to F[1]; also called Gαi isoform 3 prey; not shown: Venus variant of yellow fluorescent protein (YFP), N-terminal fragment F[1], amino acids 1-158
Take B3: the figures for the binding result in assay [2] and in assay [3] were “binds” and “no binding”, respectively.
